B1: C22orf15 (parent)
chain: ITQSWQVSVRVQPRGRAHLLPNPY
B2: ZNF449 (parent)
chain: HTGERPYECTVCKKRFTRRSHLIG
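Further: lentivirally expressed fusions sorted by FACS into six bins by GFP to DsRed ratio, PSI derived from sequencing read proportions per bin multiplied by bin number.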

The first data set covers variants of B1. The data set can be described thus: protein stability index of a GFP-peptide fusion (GPS, HEK-293T) (PSI 1-6); higher = more stable. Conditions: c terminus: a fixed tail appended.
On to ITQSWQVSVRVKPRGRAHLLPNPY [Q12K], for which the protein stability index was found to be 1.79.
Same read-out and setting: the figure for ITQSWQVSVRVDPRGRAHLLPNPY [Q12D] is 2.27; for ITQSWQVSVRVNPRGRAHLLPNPY [Q12N] it is 2.98.
Same read-out and setting: the result for ITQSWQVSVRVGPRGRAHLLPNPY [Q12G] reads 3.64; that for ITQSWQVSVRVAPRGRAHLLPNPY [Q12A], 1.16.
Same read-out and setting: the result for ITQSWQVSVRVHPRGRAHLLPNPY [Q12H] reads 2.27; that for ITQSWQVSVRVWPRGRAHLLPNPY [Q12W], 2.49.
ITQSWQVSVRVTPRGRAHLLPNPY [Q12T]: the protein stability index was 1.
Still for that read-out and setting: the result for ITQSWQVSVRVFPRGRAHLLPNPY [Q12F] reads 3.49; that for ITQSWQVSVRVSPRGRAHLLPNPY [Q12S], 2.13; that for ITQSWQVSVRVEPRGRAHLLPNPY [Q12E], 2.61.
Still for that read-out and setting: the figure for ITQSWQVSVRVMPRGRAHLLPNPY [Q12M] is 3.2; for ITQSWQVSVRVYPRGRAHLLPNPY [Q12Y] it is 2.25; for ITQSWQVSVRVPPRGRAHLLPNPY [Q12P] it is 1.72.
On the same count and under the same terms, the figure for ITQSWQVSVRVCPRGRAHLLPNPY [Q12C] is 1.77.
On to ITQSWQVSPRVQPRGRAHLLPNPY [V9P], for which the protein stability index came to 1.81.
On the same count and under the same terms, the figure for ITQSWQVSFRVQPRGRAHLLPNPY [V9F] is 1.74; for ITQSWQVSNRVQPRGRAHLLPNPY [V9N] it is 2.45; for ITQSWQVSHRVQPRGRAHLLPNPY [V9H] it is 2.88.
Same read-out and setting: the result for ITQSWQVSERVQPRGRAHLLPNPY [V9E] reads 2.26; that for ITQSWQVSDRVQPRGRAHLLPNPY [V9D], 2.02.
The same measure, in the same setting: the figure for ITQSWQVSARVQPRGRAHLLPNPY [V9A] is 2.19.
ITQSWQVSKRVQPRGRAHLLPNPY [V9K]: the protein stability index was found to be 1.91.
In the case of ITQSWQVSIRVQPRGRAHLLPNPY [V9I], the protein stability index was 2.64.
Same read-out and setting: the result for ITQSWQVSSRVQPRGRAHLLPNPY [V9S] reads 1.91; that for ITQSWQVSQRVQPRGRAHLLPNPY [V9Q], 2.44; that for ITQSWQVSTRVQPRGRAHLLPNPY [V9T], 1.55.
Still for that read-out and setting: the result for ITQSWQVSLRVQPRGRAHLLPNPY [V9L] reads 2.7; that for ITQSWQVSMRVQPRGRAHLLPNPY [V9M], 1.34.
Still for that read-out and setting: the result for YTQSWQVSVRVQPRGRAHLLPNPY [I1Y] reads 3.3.
For the variant ATQSWQVSVRVQPRGRAHLLPNPY [I1A], the protein stability index stood at 2.73.
In the case of KTQSWQVSVRVQPRGRAHLLPNPY [I1K], the protein stability index is 2.18.
Same read-out and setting: the figure for PTQSWQVSVRVQPRGRAHLLPNPY [I1P] is 1.64; for FTQSWQVSVRVQPRGRAHLLPNPY [I1F] it is 2.74.
For the variant VTQSWQVSVRVQPRGRAHLLPNPY [I1V], the protein stability index was found to be 1.41.
Still for that read-out and setting: the result for RTQSWQVSVRVQPRGRAHLLPNPY [I1R] reads 1.68; that for STQSWQVSVRVQPRGRAHLLPNPY [I1S], 1.78.
Still for that read-out and setting: the result for CTQSWQVSVRVQPRGRAHLLPNPY [I1C] reads 4.55; that for TTQSWQVSVRVQPRGRAHLLPNPY [I1T], 1.9; that for NTQSWQVSVRVQPRGRAHLLPNPY [I1N], 2.24.
Regarding DTQSWQVSVRVQPRGRAHLLPNPY [I1D], the protein stability index was found to be 2.12.
Same read-out and setting: the result for MTQSWQVSVRVQPRGRAHLLPNPY [I1M] reads 1.26.
On the same count and under the same terms, the result for LTQSWQVSVRVQPRGRAHLLPNPY [I1L] reads 1.5; that for GTQSWQVSVRVQPRGRAHLLPNPY [I1G], 1.92.
Take HTQSWQVSVRVQPRGRAHLLPNPY [I1H]: the protein stability index came out at 2.61.
Still for that read-out and setting: the result for QTQSWQVSVRVQPRGRAHLLPNPY [I1Q] reads 1.31.
Still for that read-out and setting: the result for ITQSWQVSVTVQPRGRAHLLPNPY [R10T] reads 1.98; that for ITQSWQVSVDVQPRGRAHLLPNPY [R10D], 2.05.
As to ITQSWQVSVYVQPRGRAHLLPNPY [R10Y], the protein stability index amounted to 2.12.
In the case of ITQSWQVSVPVQPRGRAHLLPNPY [R10P], the protein stability index stood at 1.83.
Same read-out and setting: the result for ITQSWQVSVGVQPRGRAHLLPNPY [R10G] reads 2.89; that for ITQSWQVSVAVQPRGRAHLLPNPY [R10A], 1.83.
Same read-out and setting: the result for ITQSWQVSVNVQPRGRAHLLPNPY [R10N] reads 2.63; that for ITQSWQVSVHVQPRGRAHLLPNPY [R10H], 1.5.
For the variant ITQSWQVSVFVQPRGRAHLLPNPY [R10F], the protein stability index is 2.62.
Same read-out and setting: the result for ITQSWQVSVWVQPRGRAHLLPNPY [R10W] reads 2.02.
Same read-out and setting: the result for ITQSWQVSVCVQPRGRAHLLPNPY [R10C] reads 1; that for ITQSWQVSVEVQPRGRAHLLPNPY [R10E], 1.32; that for ITQSWQVSVSVQPRGRAHLLPNPY [R10S], 1.98.
Same read-out and setting: the result for ITQSWQVSVKVQPRGRAHLLPNPY [R10K] reads 2.41; that for ITQSWQVSVIVQPRGRAHLLPNPY [R10I], 3.79; that for ITQSWQVSVQVQPRGRAHLLPNPY [R10Q], 2.09.
As to ITQSWQVSVMVQPRGRAHLLPNPY [R10M], the protein stability index was 2.9.
Same read-out and setting: the figure for ITQSWQVSVLVQPRGRAHLLPNPY [R10L] is 2.47; for ITQSDQVSVRVQPRGRAHLLPNPY [W5D] it is 2.32.
Still for that read-out and setting: the result for ITQSRQVSVRVQPRGRAHLLPNPY [W5R] reads 2.21.
As for ITQSEQVSVRVQPRGRAHLLPNPY [W5E], the protein stability index came to 2.97.
Still for that read-out and setting: the figure for ITQSFQVSVRVQPRGRAHLLPNPY [W5F] is 2.29; for ITQSCQVSVRVQPRGRAHLLPNPY [W5C] it is 2.25; for ITQSLQVSVRVQPRGRAHLLPNPY [W5L] it is 3.62.
On the same count and under the same terms, the figure for ITQSAQVSVRVQPRGRAHLLPNPY [W5A] is 1.86; for ITQSMQVSVRVQPRGRAHLLPNPY [W5M] it is 1.61; for ITQSVQVSVRVQPRGRAHLLPNPY [W5V] it is 3.07.
On to ITQSHQVSVRVQPRGRAHLLPNPY [W5H], for which the protein stability index came to 2.57.
On the same count and under the same terms, the result for ITQSNQVSVRVQPRGRAHLLPNPY [W5N] reads 2.86.
Consider ITQSIQVSVRVQPRGRAHLLPNPY [W5I], for which the protein stability index was found to be 4.28.
Same read-out and setting: the figure for ITQSSQVSVRVQPRGRAHLLPNPY [W5S] is 2.69.
For ITQSTQVSVRVQPRGRAHLLPNPY [W5T], the protein stability index stood at 1.48.
On the same count and under the same terms, the figure for ITQSKQVSVRVQPRGRAHLLPNPY [W5K] is 3.36; for ITQSYQVSVRVQPRGRAHLLPNPY [W5Y] it is 1.84; for ITQSQQVSVRVQPRGRAHLLPNPY [W5Q] it is 1.81.
ITQSPQVSVRVQPRGRAHLLPNPY [W5P]: the protein stability index is 2.56.
Consider ITQSWEVSVRVQPRGRAHLLPNPY [Q6E], for which the protein stability index worked out at 1.92.
For the variant ITQSWPVSVRVQPRGRAHLLPNPY [Q6P], the protein stability index was 3.07.
On the same count and under the same terms, the figure for ITQSWYVSVRVQPRGRAHLLPNPY [Q6Y] is 1.96; for ITQSWTVSVRVQPRGRAHLLPNPY [Q6T] it is 1.77.
Take ITQSWNVSVRVQPRGRAHLLPNPY [Q6N]: the protein stability index is 1.73.
Consider ITQSWIVSVRVQPRGRAHLLPNPY [Q6I], for which the protein stability index amounted to 2.74.
Same read-out and setting: the result for ITQSWFVSVRVQPRGRAHLLPNPY [Q6F] reads 4.73.
The same measure, in the same setting: the figure for ITQSWSVSVRVQPRGRAHLLPNPY [Q6S] is 1.9; for ITQSWDVSVRVQPRGRAHLLPNPY [Q6D] it is 2.15.
On the same count and under the same terms, the result for ITQSWAVSVRVQPRGRAHLLPNPY [Q6A] reads 1.09.

Another data set covers variants of B2. Described as above. Conditions: c terminus: a fixed tail appended.
Turning to HTGERPYECTVCKKRFTRRSHLIY [G24Y], the protein stability index worked out at 2.9.
The same measure, in the same setting: the figure for HTGERPYECTVCKKRFTRRSHLIW [G24W] is 2.53.
